How the values were obtained:
[1] = test system: mutant (I-A,Y-A) APC peptide (1250-KVSSINQETAQTACVEDTPI-1269)
[2] = test system: wild-type APC peptide (1250-KVSSINQETIQTYCVEDTPI-1269)

Substance: His-tagged pol-βwt protein (human pol-β, carboxyl-terminal hexahistidine tag, pET23d)
- dRP-lyase activity of pol-βwt (3'-end labeled U-DNA substrate) [1]: APC(I-A,Y-A) did not show any effect on the dRP-lyase activity of pol-βwt
- dRP-lyase activity of pol-βwt (3'-end labeled U-DNA substrate) [2]: a very efficient dRP-lyase activity of pol-βwt ..., which was blocked by APCwt peptide in a dose-dependent manner

Source: patent publication US9144596
